# Assay results from the DeepSol protein solubility set.
# Test: soluble on expression in E. coli; label from the status in PepcDB or PDB records
row,Sequence,soluble on expression in E. coli
1,MVLSHAVSESDVSVHSTFASRYVRTSLPRFKMPENSIPKEAAYQIINDELMLDGNPRLNLASFVTTWMEPECDKLIMSSINKNYVDMDEYPVTTELQNRCVNMIAHLFNAPLEEAETAVGVGTVGSSEAIMLAGLAFKRKWQNKRKAEGKPVDKPNIVTGANVQVCWEKFARYFEVELKEVKLSEGYYVMDPQQAVDMVDENTICVAAILGSTLNGEFEDVKLLNDLLVEKNKETGWDTPIHVDAASGGFIAPFLYPELEWDFRLPLVKSINVSGHKYGLVYAGIGWVIWRNKEDLPEELIFHINYLGADQPTFTLNFSKGSSQVIAQYYQLIRLGHEGYRNVMENCRENMIVLREGLEKTERFNIVSKDEGVPLVAFSLKDSSCHTEFEISDMLRRYGWIVPAYTMPPNAQHITVLRVVIREDFSRTLAERLVIDIEKVMRELDELPSRVIHKISLGQEKSESNSDNLMVTVKKSDIDKQRDIITGWKKFVADRKKTSGIC,soluble
2,MVLVLAEIITVGDELLTGNTVDSNSAYIAQRLTEKGFWVRRITTVGDDVKEIENAVREAISRKPEVLIISGGLGPTHDDVTMLGVANAIGRKLKLCEDCLERIKEFYEELHRKGLIDDPTLNEARKKMAYLPEGSEPLNNTEGAAPGAYVEYEGVKIFILPGMPREMKAMLESEVLPRLGERKFVQKKFLAEITDESKLAPILEDTIERFKVKIHSSPKGFGKYIGIIIFAEDDEVIGKVIRYIEGKGIKFREGW,soluble
3,MVNAEEQQYLNLVQYIINHGEDRPDRTGTGTLSVFAPSPLKFSLRNKTFPLLTTKRVFIRGVIEELLWFIRGETDSLKLREKNIHIWDANGSREYLDSIGLTKRQEGDLGPIYGFQWRHFGAEYIDCKTNYIGQGVDQLANIIQKIRTSPYDRRLILSAWNPADLEKMALPPCHMFCQFYVHIPSNNHRPELSCQLYQRSCDMGLGVPFNIASYALLTCMIAHVCDLDPGDFIHVMGDCHIYKDHIEALQQQLTRSPRPFPTLSLNRSITDIEDFTLDDFNIQNYHPYETIKMKMSI,soluble
4,MVNEYKRIVLLRGLECINKHYFSLFKSLLARDLNLERDNQEQYTTIQIANMMEEKFPADSGLGKLIEFCEEVPALRKRAEILKKERSEGETSLEKNGQEAGPATPTSTTSHMLASERGETSATQEETSTAQAGTSTAQAGTSTAQAGTSTA,soluble
5,MVNIPNFIDKVLSVNDTSNASLTHCIKEADIDGVIEECKDILSAQATMVEVQAPIAVCGDIHGQYTDLLRIFNRCSFPPDQNYLFLGDYVDRGRQQLEVICLLMAYKVRYPNGFFILRGNHECASINRTYGFYDECKRRYSLALYNEFQNLFNSLPLCAMISGRIFCMHGGLSPELVSWTQLAKIIRPFDPPNACLAMDLLWADPENNHTGWGKNSRGVSYIFGANVVKDFTEKMNIDLIARGHQVVQDGYEFFADKRLVTIFSAPKYCGEFDNNAGIMIVDERLIISFEILKPAMREVKIQARAAAKNKSTRSILVSSRGPKSKKG,not soluble
6,MVNKMDIIPEITRKSITDLINNKERIDGRSLHEFRDISIETGVISKAEGSSRVKLGNTQIIVGVKPQIGEPFPDTPEMGVILTNSELLPMASPTFEPGPPDERSVELSRVVDRCIRESRMIDLEKLCIIEGSKVWMLFLDLHIIDYDGNLFDAAVLATVAALLDTRIPAAEVEDGEVVINREKMQPLPVNRKALMCTFAKIGNEIVLDPSLEEEDILTARISIGVTEEGSICAMQKGGEGPLTRDDVLKAVSIAVEKVPQLIEYLDKSMTP,soluble
7,MVNKVLVANRGEIAVRIIRACKELGIPTVAIYNEVESTARHVKLADEAYMIGTDPLDTYLNKQRIINLALEVGADAIHPGYGFLAENAEFAKMCEEAGITFIGPHWKVIELMGDKARSKEVMKKAGVPVVPGSDGVLKSLEEAKALAREIGYPVLLKATAGGGGRGIRICRNEEELVKNYEQASREAEKAFGRGDLLLEKFIENPKHIEYQVLGDKHGNVIHLGERDCSIQRRNQKLVEIAPSLILTPEKREYYGNIVTKAAKEIGYYNAGTMEFIADQEGNLYFIEMNTRIQVEHPVSEMVTGIDIVKWQIKIAAGEPLTIKQEDVKFNGYAIECRINAEDPKKNFAPSTRVIERYYVPGGFGIRVEHAAARGFEVTPYYDSMIAKLITWAPTWDEAVERMRAALETYEITGVKTTIPLLINIMKEKDFKAGKFTTKYLEEHPEVFEYEE,soluble
8,MVNLANVLTNATAATLSAWSNTVPLETYFHFDEASGFGDYYLNVSVIWMNETLYETRIVPAIINVREWLDHMEANDPSPSVTNPYETSGYYAFSTVVPVLMGNMKVA,not soluble
